Assay [1] concerns the target T1, human lactadherin (human, UniProt Q08431 24-387).
T1 sequence (looked up): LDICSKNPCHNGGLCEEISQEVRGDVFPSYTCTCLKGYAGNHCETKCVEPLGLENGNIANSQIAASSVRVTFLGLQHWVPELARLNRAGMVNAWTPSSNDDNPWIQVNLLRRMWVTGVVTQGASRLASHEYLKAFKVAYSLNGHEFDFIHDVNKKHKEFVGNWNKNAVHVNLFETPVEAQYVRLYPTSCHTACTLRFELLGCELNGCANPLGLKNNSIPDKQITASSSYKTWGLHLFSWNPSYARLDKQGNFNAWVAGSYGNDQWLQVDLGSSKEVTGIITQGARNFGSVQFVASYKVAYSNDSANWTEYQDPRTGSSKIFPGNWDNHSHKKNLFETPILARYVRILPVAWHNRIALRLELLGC
Description: cell-based or functional assay.

For assay [2], the target named is T2, peptide … (SEQ ID NO:51), N-terminally biotinylated (human).
T2 sequence (peptide, N-terminally biotinylated): EISQEVRGDVFPSY
Description: ELISA, biotin-peptide on neutravidin plate, antibody 1 ug/ml.

The target in assay [3] is T3, peptide … (SEQ ID NO:74), N-terminally biotinylated (human).
T3 sequence (peptide, N-terminally biotinylated): EISQEVAGDVFPSY
The assay is described as above.

In assay [4] the target is T4, peptide … (SEQ ID NO:75), N-terminally biotinylated (human).
T4 sequence (peptide, N-terminally biotinylated): EISQEVRADVFPSY
Described as above.

Assay [5] deals with T5, peptide … (SEQ ID NO:77), N-terminally biotinylated (human).
T5 sequence (peptide, N-terminally biotinylated): EISQEVAADVFPSY
The assay is described as above.

In assay [6] the target is T6, peptide EISQEVRGAVFPSY (SEQ ID NO:76), N-terminally biotinylated (human).
T6 peptide: Biotin-EISQEVRGAVFPSY
The assay is described as above.

In assay [7] the target is T7, peptide EISQEVRAAVFPSY (SEQ ID NO:78), N-terminally biotinylated (human).
T7 peptide: Biotin-EISQEVRAAVFPSY
Described as above.

Assay [8] concerns the target T8, peptide EISQEVAGAVFPSY (SEQ ID NO:79), N-terminally biotinylated (human).
T8 peptide: Biotin-EISQEVAGAVFPSY
The description is as above.

Assay [9] deals with T9, peptide EISQEVAAAVFPSY (SEQ ID NO:80), N-terminally biotinylated (human).
T9 peptide: Biotin-EISQEVAAAVFPSY
Described as above.

The target in assay [10] is T10, peptide NGGLCEEISQEVRG (SEQ ID NO:81), N-terminally biotinylated (human).
T10 construct: Human lactadherin 14-mer with part of the RGD domain at the C-terminus
T10 peptide: Biotin-NGGLCEEISQEVRG
The assay is described as above.

Assay [11] deals with T11, peptide HNGGLCEEISQEVR (SEQ ID NO:82), N-terminally biotinylated (human).
T11 construct: Human lactadherin 14-mer with part of the RGD domain at the C-terminus
T11 peptide: Biotin-HNGGLCEEISQEVR
The description is as above.

Assay [12] concerns the target T12, peptide CHNGGLCEEISQEV (SEQ ID NO:83), N-terminally biotinylated (human, cysteine pairing not given here).
T12 peptide: Biotin-CHNGGLCEEISQEV
Described as above.

Assay [13] has as its target T13, peptide GDVFPSYTCTCLKG (SEQ ID NO:84), N-terminally biotinylated (human, cysteine pairing not given here).
T13 construct: Human lactadherin 14-mer with part of the RGD domain at the N-terminus
T13 peptide: Biotin-GDVFPSYTCTCLKG
The description is as above.

For assay [14], the target named is T14, peptide DVFPSYTCTCLKGY (SEQ ID NO:85), N-terminally biotinylated (human, cysteine pairing not given here).
T14 construct: Human lactadherin 14-mer with part of the RGD domain at the N-terminus
T14 peptide: Biotin-DVFPSYTCTCLKGY
The assay is described as above.

In assay [15] the target is T15, peptide VFPSYTCTCLKGYA (SEQ ID NO:86), N-terminally biotinylated (human, cysteine pairing not given here).
T15 peptide: Biotin-VFPSYTCTCLKGYA
The description is as above.

Ends that are not written are not given here. * marks the point of attachment. Biotin = O=C1N[C@H]2[C@H](CS[C@H]2CCCCC(=O)*)N1

B1: chimeric 311A7 antibody (antibody, V domains shown)
VH: EFQLQQSGPELVKPGASVRISCKASGYSFTDYNMNWVKQSDGKTLEWIGVINPDYGTTNNNQRFRGKATLTLDLSSSTAYMQLNSLTSEDSAVYYCARGGDYGAGYALDYWGQGTSVTVSS
VL: QIVLTQSPAIMSASPGEKVTITCSASSSVSYMYWFQQKPGTSPKLWIYSTSNLASGVPARFSGSGSGTSYSLTISRMEAEDAATYYCQQRSSYPRTFGGGTKLEIKR
For B1, the “IC50 (nM), inhibition of cell adhesion to human lactadherin” value in assay [1] worked out at 7.36 nM.

B2: anti-lactadherin antibody 215A9 (antibody, IgG1, V domains shown)
VH: QVSLKESGPGILQSSQTLSLTCSFSGFSLSTSGMGVSWIRQPSGKGLEWLAHIYWNDDKRYNPSLKSRLTISKDTSRDQVFLKITSVDTADTATYFCARRPRFYRDYDEGIDFWGQGTTLTVSS
VL: QAVVTQESALTTSPGETVTLTCRSSTGAVTTNNYANWVQEKPDHLFTGLIGGTNNRTPGVPARFSGSLIGDKAALTITGAQTEDEAIYFCALWYSNLWVFGGGTKLTVLG
notes: also called 2154A9; hybridoma 215A9
For the molecule B2, the “inhibition of SKOV-3 cell adhesion to coated human lactadherin, antibody at 5 ug/mL” value in assay [1] was over 70%. Further, the absorbance 450 nm minus 540 nm worked out at 1.1 absorbance in assay [2]; 0.52 absorbance in assay [3]; 0.74 absorbance in [4]; 0.23 absorbance in [5]; 0.1 absorbance in assay [6]; 0.02 absorbance in [7]. Further, the “absorbance 450 nm minus 540 nm” value in assay [8] came out at 0.03 absorbance; in assay [9], 0.02 absorbance; in assay [10], 0.03 absorbance; in assay [11], 0.03 absorbance; in assay [12], 0.03 absorbance; in assay [13], 0.04 absorbance. Also, the “absorbance 450 nm minus 540 nm” value in assay [14] was found to be 0.04 absorbance; in [15], 0.05 absorbance.

B3: anti-lactadherin antibody 399A12 (antibody, V domains shown)
VH: QVTLKESGPGVLQSSQTLSLTCSFSGFSLSTSGLGVIWIRQPSGAGLEWLAQIYWDDNKRYNPSLKSRLTISKDTSRNQVFLKITPVDTADTATYYCARRTFYDYDEGFYAMDYWGQGTSVTVSS
VL: DIQMTQTTSSLSASLGDRVTITCRASQDISNYLNWYQQKPDGTIKLLIYYASRLHSGVPSRFSGSGSGTDYSLTISNLEQEDIATYFCQQGNTLPLTFGAGTKLELKR
notes: Murine monoclonal, kappa light chain; Variable regions identical to those of 416H9; also called hybridoma 399A12; LMBP 9491CB
Consider B3, for which, in assay [1], the “decrease of SKOV-3 cell migration towards lactadherin, antibody at 5 ug/mL” value is over 80%. Also, in [1], the “inhibition of SKOV-3 cell adhesion to coated human lactadherin, antibody at 5 ug/mL” value is over 70%. Further, the absorbance 450 nm minus 540 nm came out at 1.62 absorbance in assay [2]; 0.24 absorbance in assay [3]; 0.69 absorbance in assay [4]; 0.2 absorbance in assay [5]; 0.03 absorbance in assay [6]; 0.02 absorbance in assay [7]. The “absorbance 450 nm minus 540 nm” value in [8] was found to be 0.03 absorbance; in assay [9], 0.02 absorbance; in assay [10], 0.03 absorbance; in [11], 0.02 absorbance; in assay [12], 0.02 absorbance; in [13], 0.03 absorbance. Moreover, the “absorbance 450 nm minus 540 nm” value worked out at 0.04 absorbance in [14] and 0.03 absorbance in [15].

(Values after patent publication WO2013139956A1 (dated 2013).)
